# Laboratory results as given in patent US20030092613A1, “Alpha7 nicotinic receptor peptides as ligands for beta amyloid peptides” (priority 2000, published 2003).
# B1: cyclic peptide (Ac)…-amide (peptide)
# peptide: Ac-SERFYECCKEP-NH2
# modifications: also: cyclic, bridge not given here
# Molecular target: β-amyloid1-42 (UniProt P05067)
# Experiment: cell-based or functional assay
binder,measurement,value
B1,ACh rel % Inh @ 100 µM,81%
same,Inh ACh rel IC50,316 nM
